Data: patent US6506587B2, “TRF 1 binding protein, methods of use thereof” (The Rockefeller University, priority 1998, dated 2003)
Residue numbers refer to the chain shown, from its start. Entries after “also recorded” stand apart in the source; their conditions may differ.

Legend:
[1] = target: T1, tankyrase (Homo sapiens, UniProt O95271); assay: PARP assay with baculovirus-derived tankyrase and [32P]NAD+; format: biochemical; conditions: 1 mM 3AB; 4 μg tankyrase, without or with 4 μg TRF1; 1.3 μM [32P]NAD+
T1 construct: [His]6 (pFastBac HTb) (N); made in house; host or cells: SF21 insect cells (baculovirus)
T1 sequence (O95271 1-1327): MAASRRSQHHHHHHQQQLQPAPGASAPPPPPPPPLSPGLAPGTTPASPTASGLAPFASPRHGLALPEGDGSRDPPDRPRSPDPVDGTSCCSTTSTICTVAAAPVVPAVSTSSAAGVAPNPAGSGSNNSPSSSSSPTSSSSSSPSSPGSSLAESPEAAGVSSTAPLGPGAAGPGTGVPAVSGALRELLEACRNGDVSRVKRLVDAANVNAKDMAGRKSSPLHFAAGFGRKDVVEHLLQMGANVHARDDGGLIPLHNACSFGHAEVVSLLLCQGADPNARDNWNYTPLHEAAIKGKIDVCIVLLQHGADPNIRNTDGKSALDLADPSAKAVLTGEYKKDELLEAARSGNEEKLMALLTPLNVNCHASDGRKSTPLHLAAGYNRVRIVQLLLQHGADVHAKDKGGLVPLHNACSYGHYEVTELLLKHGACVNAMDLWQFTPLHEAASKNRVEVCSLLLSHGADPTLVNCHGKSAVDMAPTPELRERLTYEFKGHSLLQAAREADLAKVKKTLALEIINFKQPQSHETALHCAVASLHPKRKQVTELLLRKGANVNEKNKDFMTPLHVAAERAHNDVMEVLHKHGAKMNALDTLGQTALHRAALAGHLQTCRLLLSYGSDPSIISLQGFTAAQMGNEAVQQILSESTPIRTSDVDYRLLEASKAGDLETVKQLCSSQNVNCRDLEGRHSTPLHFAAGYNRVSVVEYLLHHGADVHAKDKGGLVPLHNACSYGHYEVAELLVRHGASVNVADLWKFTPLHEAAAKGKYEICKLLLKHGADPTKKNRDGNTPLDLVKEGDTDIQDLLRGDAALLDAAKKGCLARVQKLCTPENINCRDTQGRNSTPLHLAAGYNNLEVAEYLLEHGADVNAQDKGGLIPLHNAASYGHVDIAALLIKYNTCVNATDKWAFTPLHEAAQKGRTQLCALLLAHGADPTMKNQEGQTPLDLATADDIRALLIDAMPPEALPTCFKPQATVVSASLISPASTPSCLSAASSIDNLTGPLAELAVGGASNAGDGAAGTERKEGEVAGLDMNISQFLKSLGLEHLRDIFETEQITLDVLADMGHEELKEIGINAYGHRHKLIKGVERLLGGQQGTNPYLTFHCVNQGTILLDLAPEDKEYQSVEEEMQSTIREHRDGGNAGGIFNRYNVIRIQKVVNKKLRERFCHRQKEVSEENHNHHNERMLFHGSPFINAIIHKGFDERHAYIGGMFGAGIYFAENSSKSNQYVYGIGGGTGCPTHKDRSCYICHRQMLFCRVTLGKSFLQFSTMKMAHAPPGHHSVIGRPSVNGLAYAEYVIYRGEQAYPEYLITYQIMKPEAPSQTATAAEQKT
Description: Reactions containing 4 μg tankyrase (+), without (−) or with (+) 4 μg TRF 1, and 1.3 μM [^32P]NAD^+ were incubated without (−) or with (+) 1 mM 3AB and processed as in FIG. 9A.
PARP assays were performed with baculovirus-derived tankyrase essentially as described in [Simonin et al. 268:8529 (1993)] but without addition of DNA. To make baculovirus-derived protein, an N-terminally [His]6-tagged fusion protein of human tankyrase was generated in the expression vector pFastBac HTb (Gibco BRL, Grand Island) and used to generate a recombinant plasmid in DH10Bac E. coli. The recombinant DNA was used to transfect SF21 insect cells and recombinant virus was isolated and amplified. Protein was purified as described for baculovirus-derived TRF1 [Bianchi et al., EMBO J. 16:1785 (1997)]. Samples containing tankyrase (0-4 μg) and TRF1 (0-4 μg) [Bianchi et al., EMBO J. 16:1785 (1997)] were incubated for 30 minutes at 25° C. in 0.1 ml of assay buffer containing 50 mM Tris-HCl (pH 8.0), 4 mM Mg Cl2, 0.2 mM dithiothreitol (DTT), 1.3 μM [^32P]NAD+ (4 μCi) and varying concentrations of unlabeled NAD+ (0-1 mM). Reactions were stopped by the addition of 20% trichloroacetic acid (TCA). Acid-insoluble proteins were collected by centrifugation, rinsed in 5% TCA, suspended in Laemmli loading buffer, and fractionated on SDS-PAGE. Proteins were visualized by Coomassie-Blue stain and autoradiography. […]

[2] = test system: TRF1; assay: Gel-shift assay for TTAGGG repeat binding activity of TRF1; format: biochemical
Description: The Gel-shift assay for the TTAGGG repeat binding activity of TRF1 used a duplex [TTAGGG]12 DNA as a probe. Binding reactions contained the components indicated above the lanes. Tankyrase was varied from 2.5 to 200 ng per 20 μl incubation in three-fold dilution steps (triangles). TRF1 was either present at 13 ng (+) or varied from 120 to 13 ng in three-fold dilution steps (triangle). NAD^+ was at 0 (−) or 0.2 mM (+). The asterisks indicate the position of TRF1-containing complexes as determined by antibody super-shift experiments.
Gel-shift assays were performed using an end-labeled 142 bp Hindlll-Asp718 fragment from plasmid pTH12 [Z. Zhong, et al, Mol. Cell. Biol. 12:4834 (1992)] containing 12 tandem TTAGGG repeats. Baculovirus-derived TRF1 (13 to 120 ng) [Bianchi et al. EMBO J. 16:1785 (1997)] was incubated for 30 minutes at room temperature in a 20 μl reaction containing 20 mM Hepes-KOH (pH 7.9), 100 mM KCL, 0.5 mM DTT, 5% glycerol, 0.1% NP40, 100 ng sheared E. coli DNA, 100 ng β-casein, and 1 ng of labeled probe. In some cases, reactions were supplemented with NAD^+ (0.2 mM) and baculovirus-derived human tankyrase (2.5 to 200 ng). Samples were fractionated on a 0.7% agarose gel run in 0.1× TBE (8.9 mM Tris-base, 8.9 mM Boric acid, and 0.2 mM EDTA) at 130 volts for 1 hour at room temperature. Gels were dried onto Whatman DE81 paper and autoradiographed.

[3] = target: T2, TRF1 (Homo sapiens, UniProt P54274); assay: Yeast two-hybrid analysis, β-galactosidase assay; format: cell-based; conditions: with amino-terminal acidic domain of TRF1 (LexAd68-C); 12.0 units with GAD lacking tankyrase sequences; average of three transformations
T2 construct: expressed in transfected cells; host or cells: yeast strain L40
Description: (§1) Proteins were immunoprecipitated with an unrelated rabbit serum as a control (C) (lanes 1 and 4), anti-tankyrase antibodies (tankyrase) (lanes 2 and 6) or anti-TRF1 antibody 371 (TRF1) (lanes 3 and 5). Samples were processed, suspended in Laemmli buffer and divided in half. One set was not heated (left panel) and the other was heated at 100° C. for 5 min (right panel). Proteins were fractionated on 10% SDS-PAGE, transferred to nitrocellulose and probed with anti-TRF1 antibody 371 (left panel) or anti-tankyrase antibodies (right panel). […] The values represent an average of three independent transformations. Values<0.01 are indicated by 0.
(§2) TR1L-4 and TR1L-12 were isolated from a human liver two-hybrid cDNA library (Clontech) created in pGad10. The library was screened with human full length TRF1 cDNA fused to LexA (LexA-TRF1) [Bianchi et al., EMBO J., 16:1785-1794 (1997)] in the yeast strain L40 as described [Hollenberg et al., Mol. Cell Biol., 15:3813-3822 (1995)]. Two-hybrid analysis was performed as described by Bianchi et al. [EMBO J., 16:1785-1794 (1997)]. β-galactosidase assays for the two-hybrid analysis was performed as described by Bianchi et al. [EMBO J., 16:1785-1794 (1997)].
T2 sequence (P54274 1-67): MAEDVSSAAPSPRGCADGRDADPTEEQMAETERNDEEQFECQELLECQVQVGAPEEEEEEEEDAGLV

[4] = target: T3, TRF1 (Homo sapiens, UniProt P54274); assay: Yeast two-hybrid analysis, β-galactosidase assay; format: cell-based; conditions: ΔN66-LexA (deletion of the acidic domain of TRF1)
T3 construct: expressed in transfected cells; host or cells: yeast strain L40
T3 sequence (P54274 67-439): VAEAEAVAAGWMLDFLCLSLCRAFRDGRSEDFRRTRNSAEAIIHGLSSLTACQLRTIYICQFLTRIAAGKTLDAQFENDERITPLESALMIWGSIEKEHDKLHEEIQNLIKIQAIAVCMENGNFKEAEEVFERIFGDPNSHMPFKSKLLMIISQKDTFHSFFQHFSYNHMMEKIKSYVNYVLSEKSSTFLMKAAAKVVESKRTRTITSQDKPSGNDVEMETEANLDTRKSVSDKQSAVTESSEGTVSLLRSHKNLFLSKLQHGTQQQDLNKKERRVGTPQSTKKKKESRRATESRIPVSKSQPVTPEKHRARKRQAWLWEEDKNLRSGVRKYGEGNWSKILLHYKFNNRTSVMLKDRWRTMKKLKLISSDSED
Description: as §1, §2

`NC(=O)c1cccc(N)c1` [3AB, 3-aminobenzamide] was tested, and the “Modification (ADP-ribosylation) of TRF1 and tankyrase by tankyrase” value [1] was “strongly inhibited; also recorded: inhibited”.

B1: tankyrase: human TRF1-binding protein of SEQ ID NO:2 with ANK repeats, SAM motif and PARP-related domain; recombinant, baculovirus-derived (protein)
chain: T1 sequence (O95271 1-1327) with R802K
With B1 the “TRF1 DNA binding activity on [TTAGGG]12 probe” value (“TRF1 DNA binding activity” for short) ([2]; NAD+ included (0.2 mM), tankyrase 2.5 to 200 ng per 20 μl, TRF1 13 ng) was “drastic reduction”, the “TRF1 DNA binding activity” value ([2]; NAD+ included (0.2 mM), tankyrase 2.5 to 200 ng per 20 μl, TRF1 13 ng, listed as Tankyrase) was “inhibition” and the “TRF1 DNA binding activity” value ([2]; absence of NAD+, effect also seen with total insect cell protein (non-specific)) was “slight stimulation”.

B2: GAD-tankyrase: 10-ANK repeat domain of TR1L-12 (ANK repeats 9-19) fused to the GAL4 activation domain (protein)
chain: FTPLHEAASKNRVEVCSLLLSHGADPTLVNCHGKSAVDMAPTPELRERLTYEFKGHSLLQAAREADLAKVKKTLALEIINFKQPQSHETALHCAVASLHPKRKQVTELLLRKGANVNEKNKDFMTPLHVAAERAHNDVMEVLHKHGAKMNALDTLGQTALHRAALAGHLQTCRLLLSYGSDPSIISLQGFTAAQMGNEAVQQILSESTPIRTSDVDYRLLEASKAGDLETVKQLCSSQNVNCRDLEGRHSTPLHFAAGYNRVSVVEYLLHHGADVHAKDKGGLVPLHNACSYGHYEVAELLVRHGASVNVADLWKFTPLHEAAAKGKYEICKLLLKHGADPTKKNRDGNTPLDLVKEGDTDI
modifications: left off: large carriers
With B2 the “β-galactosidase levels (lacZ reporter activation)” value [3] was 50.4 units and the “Interaction with TRF1 lacking the acidic domain” value [4] was “abolished”.
